Data as given in article PMC9482650, “Quantitative fragmentomics allow affinity mapping of interactomes” (Nature Communications, 2022).
Blank lines part the entries; values can stand above or below the binder they belong to.

Tests used:
Test in all cases: holdup assay
Parameters in all cases: key: below the threshold = too weak to quantify, mostly under pKd 3.1 to 4
[1] = target: T1, MPDZ_5, O75970
T1 sequence (O75970 695-796, limits assumed, looked up): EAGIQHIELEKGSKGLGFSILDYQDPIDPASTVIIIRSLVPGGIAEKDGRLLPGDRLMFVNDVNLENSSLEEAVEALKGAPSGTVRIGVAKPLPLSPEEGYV

[2] = target: T2, APBA1_2, Q02410
T2 sequence (Q02410 742-832, limits assumed, looked up): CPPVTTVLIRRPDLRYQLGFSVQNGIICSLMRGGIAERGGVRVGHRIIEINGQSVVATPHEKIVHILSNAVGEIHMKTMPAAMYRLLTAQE

[3] = target: MAGI2_3, Q86UL8
MAGI2_3, Q86UL8, sequence (Q86UL8 600-682): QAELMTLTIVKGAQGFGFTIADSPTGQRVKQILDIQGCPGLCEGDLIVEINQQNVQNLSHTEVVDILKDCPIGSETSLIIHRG

[4] = target: NOS1, P29475
NOS1, P29475, sequence (P29475 9-101): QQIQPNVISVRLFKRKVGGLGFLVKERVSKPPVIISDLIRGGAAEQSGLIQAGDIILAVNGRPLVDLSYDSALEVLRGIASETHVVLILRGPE

[5] = target: FRMPD3, Q5JV73
FRMPD3, Q5JV73, sequence (Q5JV73 12-100): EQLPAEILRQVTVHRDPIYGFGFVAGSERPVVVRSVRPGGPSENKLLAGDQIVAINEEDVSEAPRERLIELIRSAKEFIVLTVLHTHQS

[6] = target: MAGI3_2, Q5TCQ9
MAGI3_2, Q5TCQ9, sequence (Q5TCQ9 398-503): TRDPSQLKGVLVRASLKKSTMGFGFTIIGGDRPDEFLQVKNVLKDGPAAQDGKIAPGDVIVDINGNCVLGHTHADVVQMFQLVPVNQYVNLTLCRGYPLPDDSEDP

[7] = target: T3, PDZD7_3, Q9H5P4
T3 sequence (Q9H5P4 857-944, limits assumed, looked up): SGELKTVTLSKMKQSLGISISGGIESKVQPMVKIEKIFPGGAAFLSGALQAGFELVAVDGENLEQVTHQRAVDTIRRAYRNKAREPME

[8] = target: T4, GRIP1_5, Q9Y3R0
T4 sequence (Q9Y3R0 568-668, limits assumed, looked up): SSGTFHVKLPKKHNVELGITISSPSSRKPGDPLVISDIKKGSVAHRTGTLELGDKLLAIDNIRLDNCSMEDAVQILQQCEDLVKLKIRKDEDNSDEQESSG

[9] = target: Inadl_1, Q8NI35
Inadl_1, Q8NI35, sequence (Q8NI35 113-229): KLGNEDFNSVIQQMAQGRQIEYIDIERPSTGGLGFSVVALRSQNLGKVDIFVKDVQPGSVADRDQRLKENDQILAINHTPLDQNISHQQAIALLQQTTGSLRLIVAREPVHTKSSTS

[10] = target: DLG2_3, Q15700
[11] = target: PDZRN4_1, Q6ZMN7
PDZRN4_1, Q6ZMN7, sequence (Q6ZMN7 213-318): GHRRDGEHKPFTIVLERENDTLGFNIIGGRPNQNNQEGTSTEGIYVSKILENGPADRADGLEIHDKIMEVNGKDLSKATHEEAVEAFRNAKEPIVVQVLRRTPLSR

[12] = target: T5, GRIP1_4, Q9Y3R0
T5 sequence (Q9Y3R0 467-571, limits assumed, looked up): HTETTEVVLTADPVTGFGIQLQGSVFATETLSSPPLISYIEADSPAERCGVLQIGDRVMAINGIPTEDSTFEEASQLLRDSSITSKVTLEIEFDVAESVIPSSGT

[13] = target: FRMPD2_1, Q68DX3
FRMPD2_1, Q68DX3, sequence (Q68DX3 770-861): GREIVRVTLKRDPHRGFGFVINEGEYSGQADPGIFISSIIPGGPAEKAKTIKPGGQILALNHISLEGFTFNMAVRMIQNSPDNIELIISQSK

[14] = target: PTPN3, P26045
PTPN3, P26045, sequence (P26045 505-587): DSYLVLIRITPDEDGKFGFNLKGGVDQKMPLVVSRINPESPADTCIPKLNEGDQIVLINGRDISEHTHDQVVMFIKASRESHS

[15] = target: T6, DFNB31_3, Q9P202
T6 sequence (Q9P202 811-907, limits assumed, looked up): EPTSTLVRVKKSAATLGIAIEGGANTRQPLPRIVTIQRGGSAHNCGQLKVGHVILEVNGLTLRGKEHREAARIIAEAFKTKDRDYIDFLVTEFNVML

[16] = target: FRMPD4, Q14CM0
FRMPD4, Q14CM0, sequence (Q14CM0 67-160): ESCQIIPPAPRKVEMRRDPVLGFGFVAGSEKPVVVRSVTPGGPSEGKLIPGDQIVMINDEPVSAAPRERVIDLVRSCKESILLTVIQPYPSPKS

[17] = target: T7, SIPA1L2, Q9P2F8
T7 sequence (Q9P2F8 945-1036, limits assumed, looked up): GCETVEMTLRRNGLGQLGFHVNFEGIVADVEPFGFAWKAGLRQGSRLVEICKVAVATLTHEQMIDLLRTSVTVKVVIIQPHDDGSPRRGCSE

[18] = target: T8, FRMPD1, Q5SYB0
T8 sequence (Q5SYB0 52-145, limits assumed, looked up): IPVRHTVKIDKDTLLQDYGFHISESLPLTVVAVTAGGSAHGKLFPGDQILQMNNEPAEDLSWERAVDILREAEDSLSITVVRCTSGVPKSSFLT

[19] = target: T9, PARD3B_1, Q8TEW8
T9 sequence (Q8TEW8 196-299, limits assumed, looked up): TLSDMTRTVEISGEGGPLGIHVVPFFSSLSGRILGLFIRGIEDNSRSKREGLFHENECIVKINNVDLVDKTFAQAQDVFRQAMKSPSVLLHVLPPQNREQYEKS

[20] = target: LNX1_3, Q8TBB1
LNX1_3, Q8TBB1, sequence (Q8TBB1 500-596): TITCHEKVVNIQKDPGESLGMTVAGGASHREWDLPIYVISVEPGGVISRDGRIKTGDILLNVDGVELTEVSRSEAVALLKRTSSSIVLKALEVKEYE

[21] = target: NHERF4_2, Q86UT5
NHERF4_2, Q86UT5, sequence (Q86UT5 220-308): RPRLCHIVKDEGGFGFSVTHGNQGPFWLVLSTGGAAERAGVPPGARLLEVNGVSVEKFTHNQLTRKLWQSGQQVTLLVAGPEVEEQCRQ

[22] = target: T10, LNX2_2, Q8N448
T10 sequence (Q8N448 334-432, limits assumed, looked up): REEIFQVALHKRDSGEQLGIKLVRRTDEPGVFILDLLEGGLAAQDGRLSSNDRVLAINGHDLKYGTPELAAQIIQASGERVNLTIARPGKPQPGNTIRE

[23] = target: Inadl_6, Q8NI35
Inadl_6, Q8NI35, sequence (Q8NI35 1058-1167): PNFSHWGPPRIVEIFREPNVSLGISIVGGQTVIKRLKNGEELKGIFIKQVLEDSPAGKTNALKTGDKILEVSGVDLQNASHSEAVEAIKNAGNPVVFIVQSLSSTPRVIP

[24] = target: PDLIM1, O00151
PDLIM1, O00151, sequence (O00151 1-87): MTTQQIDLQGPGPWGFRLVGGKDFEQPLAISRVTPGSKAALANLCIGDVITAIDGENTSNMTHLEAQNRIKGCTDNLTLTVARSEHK

[25] = target: T11, SHANK1, Q9Y566
T11 sequence (Q9Y566 658-767, limits assumed, looked up): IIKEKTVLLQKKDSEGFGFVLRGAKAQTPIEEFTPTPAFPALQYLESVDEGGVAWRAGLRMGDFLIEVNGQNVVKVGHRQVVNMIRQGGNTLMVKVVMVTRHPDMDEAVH

[26] = target: Inadl_10, Q8NI35
Inadl_10, Q8NI35, sequence (Q8NI35 1673-1763): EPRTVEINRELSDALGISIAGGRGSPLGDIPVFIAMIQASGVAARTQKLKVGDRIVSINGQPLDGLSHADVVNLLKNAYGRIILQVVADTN

[27] = target: Inadl_4, Q8NI35
Inadl_4, Q8NI35, sequence (Q8NI35 547-651): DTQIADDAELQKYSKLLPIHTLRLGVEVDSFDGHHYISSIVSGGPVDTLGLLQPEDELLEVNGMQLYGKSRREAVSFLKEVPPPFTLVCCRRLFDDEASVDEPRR

[28] = plain residues with an end cap or a label only (N-terminal biotin on a linker: ttds)
[29] = plain residues with an end cap or a label only (N-terminal biotin on a linker: ahx)

- pKd [1, 28]: below the threshold
- pKd [2, 28]: below the threshold
- pKd [3, 28]: below the threshold
- pKd [4, 28]: below the threshold
- pKd [5, 28]: below the threshold
- pKd [6, 28]: below the threshold
- pKd [7, 28]: 4.05
- pKd [8, 28]: below the threshold
- pKd [9, 28]: below the threshold
- pKd [10, 28]: below the threshold
- pKd [11, 28]: 3.98
- pKd [12, 28]: below the threshold
- pKd [13, 28]: below the threshold
- pKd [14, 28]: 4.92
- pKd [15, 28]: below the threshold
- pKd [16, 28]: 3.49
- pKd [17, 28]: below the threshold
- pKd [18, 28]: below the threshold
- pKd [19, 28]: below the threshold
- pKd [20, 28]: below the threshold
- pKd [21, 28]: below the threshold
- pKd [22, 28]: below the threshold
- pKd [23, 28]: 3.93
- pKd [24, 28]: 4.29
- pKd [25, 28]: 3.5
- pKd [26, 28]: below the threshold
- pKd [27, 28]: below the threshold
B1: KCNA5, P22460 (peptide)
chain: CLDTSRETDL

- pKd [1, 28]: 3.49
- pKd [2, 28]: 3.62
- pKd [3, 28]: 3.6
- pKd [4, 28]: 3.96
- pKd [5, 28]: below the threshold
- pKd [6, 28]: 3.84
- pKd [7, 28]: below the threshold
- pKd [8, 28]: below the threshold
- pKd [9, 28]: below the threshold
- pKd [10, 28]: 3.91
- pKd [11, 28]: below the threshold
- pKd [12, 28]: below the threshold
- pKd [13, 28]: below the threshold
- pKd [14, 28]: below the threshold
- pKd [15, 28]: below the threshold
- pKd [16, 28]: below the threshold
- pKd [17, 28]: below the threshold
- pKd [18, 28]: below the threshold
- pKd [19, 28]: below the threshold
- pKd [20, 28]: 3.67
- pKd [21, 28]: below the threshold
- pKd [22, 28]: below the threshold
- pKd [23, 28]: below the threshold
- pKd [24, 28]: 3.47
- pKd [25, 28]: 4.17
- pKd [26, 28]: below the threshold
- pKd [27, 28]: below the threshold
B2: MAP2K2, P36507 (peptide)
chain: QPGTPTRTAV

- pKd [1, 29]: below the threshold
- pKd [2, 29]: 3.65
- pKd [3, 29]: 4.23
- pKd [4, 29]: 3.67
- pKd [5, 29]: below the threshold
- pKd [6, 29]: below the threshold
- pKd [7, 29]: 3.87
- pKd [8, 29]: below the threshold
- pKd [9, 29]: below the threshold
- pKd [10, 29]: below the threshold
- pKd [11, 29]: below the threshold
- pKd [12, 29]: below the threshold
- pKd [13, 29]: below the threshold
- pKd [14, 29]: 4.39
- pKd [15, 29]: below the threshold
- pKd [16, 29]: below the threshold
- pKd [17, 29]: below the threshold
- pKd [18, 29]: below the threshold
- pKd [19, 29]: below the threshold
- pKd [20, 29]: below the threshold
- pKd [21, 29]: below the threshold
- pKd [22, 29]: below the threshold
- pKd [23, 29]: 3.81
- pKd [24, 29]: below the threshold
- pKd [25, 29]: 4.28
- pKd [26, 29]: below the threshold
- pKd [27, 29]: below the threshold
B3: RAPGEF2, Q9Y4G8 (peptide)
chain: EDEDEQVSAV
